Drawing on US20230416362A1, this text covers IC50 and EC50 for one substance.

The target in assay [1] is mTIGIT (ELISA of Table 7) (mouse) (UniProt P86176). Briefly: mTIGIT/mCD155 competition ELISA; competitor mCD155. In general terms: An ELISA detects its analyte on a solid surface through an enzyme-linked reagent.
Assay [2] shares this target. Briefly: ELISA binding.

Sequence of mTIGIT (ELISA of Table 7) (mouse) (P86176 29-145 limits assumed): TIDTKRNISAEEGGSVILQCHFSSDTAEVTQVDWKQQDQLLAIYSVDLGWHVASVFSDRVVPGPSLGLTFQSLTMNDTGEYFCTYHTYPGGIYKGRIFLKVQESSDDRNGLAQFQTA

With 1G9 (Bio X Cell, #BE0150) (antibody), the concentration for half-maximal inhibition (IC50) (in general, the midpoint of a concentration-inhibition curve) in assay [1] was determined as 1500 pM. In addition, in assay [2], the EC50 (commonly the midpoint of the concentration-response curve) was found to be 300 pM.
